Experiments:
crystal structure = target: the molecule itself; assay: crystal structure
SEC = target: the molecule itself; assay: SEC

Row | Protein | stoichiometry N (crystal structure) | stoichiometry N (SEC)
1 | Rhizobium etli pyruvate carboxylase T882A mutant (enzyme, biotin tethered to Lys1119) PISKILVANRSEIAIRVFRAANELGIKTVAIWAEEDKLALHRFKADESYQVGRGPHLARDLGPIESYLSIDEVIRVAKLSGADAIHPGYGLLSESPEFVDACNKAGIIFIGPKADTMRQLGNKVAARNLAISVGVPVVPATEPLPDDMAEVAKMAAAIGYPVMLKASWGGGGRGMRVIRSEADLAKEVTEAKREAMAAFGKDEVYLEKLVERARHVESQILGDTHGNVVHLFERDCSVQRRNQKVVERAPAPYLSEAQRQELAAYSLKIAGATNYIGAGTVEYLMDADTGKFYFIEVNPRIQVEHTVTEVVTGIDIVKAQIHILDGAAIGTPQSGVPNQEDIRLNGHALQCRVTTEDPEHNFIPDYGRITAYRSASGFGIRLDGGTSYSGAIITRYYDPLLVKVTAWAPNPLEAISRMDRALREFRIRGVATNLTFLEAIIGHPKFRDNSYTTRFIDTTPELFQQVKRQDRATKLLTYLADVTVNGHPEAKDRPKPLENAARPVVPYANGNGVKDGTKQLLDTLGPKKFGEWMRNEKRVLLTDTTMRDGHQSLLATRMRTYDIARIAGTYSHALPNLLSLECWGGATFDVSMRFLTEDPWERLALIREGAPNLLLQMLLRGANGVGYTNYPDNVVKYFVRQAAKGGIDLFRVFDCLNWVENMRVSMDAIAEENKLCEAAICYTGDILNSARPKYDLKYYTNLAVELEKAGAHIIAVKDMAGLLKPAAAKVLFKALREATGLPIHFHTHDTSGIAAATVLAAVEAGVDAVDAAMDALSGNTSQPCLGSIVEALSGSERDPGLDPAWIRRISFYWEAVRNQYAAFESDLKGPASEVYLHEMPGGQFTNLKEQARSLGLETRWHQVAQAYADANQMFGDIVKVAPSSKVVGDMALMMVSQDLTVADVVSPDREVSFPESVVSMLKGDLGQPPSGWPEALQKKALKGEKPYTVRPGSLLKEADLDAERKVIEKKLEREVSDFEFASYLMYPKVFTDFALASDTYGPVSVLPTPAYFYGLADGEELFADIEKGKTLVIVNQAVSATDSQGMVTVFFELNGQPRRIKVPDRAHGATGAAVRRKAEPGNAAHVGAPMPGVISRVFVSSGQAVNAGDVLVSIEAMKMETAIHAEKDGTIAEVLVKAGDQIDAKDLLAVYGG | 4 | 
2 | wild-type Rhizobium etli pyruvate carboxylase (enzyme) PISKILVANRSEIAIRVFRAANELGIKTVAIWAEEDKLALHRFKADESYQVGRGPHLARDLGPIESYLSIDEVIRVAKLSGADAIHPGYGLLSESPEFVDACNKAGIIFIGPKADTMRQLGNKVAARNLAISVGVPVVPATEPLPDDMAEVAKMAAAIGYPVMLKASWGGGGRGMRVIRSEADLAKEVTEAKREAMAAFGKDEVYLEKLVERARHVESQILGDTHGNVVHLFERDCSVQRRNQKVVERAPAPYLSEAQRQELAAYSLKIAGATNYIGAGTVEYLMDADTGKFYFIEVNPRIQVEHTVTEVVTGIDIVKAQIHILDGAAIGTPQSGVPNQEDIRLNGHALQCRVTTEDPEHNFIPDYGRITAYRSASGFGIRLDGGTSYSGAIITRYYDPLLVKVTAWAPNPLEAISRMDRALREFRIRGVATNLTFLEAIIGHPKFRDNSYTTRFIDTTPELFQQVKRQDRATKLLTYLADVTVNGHPEAKDRPKPLENAARPVVPYANGNGVKDGTKQLLDTLGPKKFGEWMRNEKRVLLTDTTMRDGHQSLLATRMRTYDIARIAGTYSHALPNLLSLECWGGATFDVSMRFLTEDPWERLALIREGAPNLLLQMLLRGANGVGYTNYPDNVVKYFVRQAAKGGIDLFRVFDCLNWVENMRVSMDAIAEENKLCEAAICYTGDILNSARPKYDLKYYTNLAVELEKAGAHIIAVKDMAGLLKPAAAKVLFKALREATGLPIHFHTHDTSGIAAATVLAAVEAGVDAVDAAMDALSGNTSQPCLGSIVEALSGSERDPGLDPAWIRRISFYWEAVRNQYAAFESDLKGPASEVYLHEMPGGQFTNLKEQARSLGLETRWHQVAQAYADANQMFGDIVKVTPSSKVVGDMALMMVSQDLTVADVVSPDREVSFPESVVSMLKGDLGQPPSGWPEALQKKALKGEKPYTVRPGSLLKEADLDAERKVIEKKLEREVSDFEFASYLMYPKVFTDFALASDTYGPVSVLPTPAYFYGLADGEELFADIEKGKTLVIVNQAVSATDSQGMVTVFFELNGQPRRIKVPDRAHGATGAAVRRKAEPGNAAHVGAPMPGVISRVFVSSGQAVNAGDVLVSIEAMKMETAIHAEKDGTIAEVLVKAGDQIDAKDLLAVYGG |  | 4
